The numbers were not newly measured in publication PMC8431939, which cites them from elsewhere.

This data set deals with CD112 (Homo sapiens) (UniProt Q92692). Description: SPR. On the technique in general: SPR reads the build-up and loss of mass on a sensor chip optically.
Chain of UniProt Q92692 (Q92692 32-538): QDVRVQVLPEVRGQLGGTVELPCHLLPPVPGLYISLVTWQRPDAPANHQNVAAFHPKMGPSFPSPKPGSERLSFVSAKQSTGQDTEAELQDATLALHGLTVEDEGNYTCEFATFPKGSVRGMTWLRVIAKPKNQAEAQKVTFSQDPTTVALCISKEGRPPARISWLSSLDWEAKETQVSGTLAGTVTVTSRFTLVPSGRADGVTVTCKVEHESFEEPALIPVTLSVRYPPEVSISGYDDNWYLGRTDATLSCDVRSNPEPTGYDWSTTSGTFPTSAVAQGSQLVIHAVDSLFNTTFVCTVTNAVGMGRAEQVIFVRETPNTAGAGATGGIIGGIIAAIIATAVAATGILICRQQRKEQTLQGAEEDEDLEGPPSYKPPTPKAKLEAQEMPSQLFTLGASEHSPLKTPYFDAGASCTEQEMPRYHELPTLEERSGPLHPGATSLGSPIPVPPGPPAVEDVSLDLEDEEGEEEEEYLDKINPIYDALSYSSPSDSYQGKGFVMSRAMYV

As for CD112R (from UniProt Q6DKI7), the Kd is 88 nM.

By Kd is commonly meant the concentration at which binding is half-saturated.
